The target in assay [1] is T1, human CTLA-4 expressed on cells (human, UniProt P16410 36-223).
T1 construct: whole, on cells; On stably or transiently transfected HEK293 cells; also called hCTLA-4; HEK293-hCTLA-4 cells
Nature of the assay: flow cytometry on HEK293-hCTLA-4 cells. As to the method:
To test the binding of antibodies to CTLA-4 under more physiological conditions, the binding of CTLA-4 antibodies to cell-surface CTLA-4 was tested. […] The surface expression of hCTLA-4 in the obtained cell line was tested using a commercial anti-CTLA-4 antibody and compared to the parent cell line (HEK293 without transfection). […] The anti-CTLA-4 antibodies were incubated in serial dilution concentrations with the HEK293-hCTLA-4 cells for 1 hour on ice. Following a wash step, an anti-human antibody conjugated to ALEXA FLUOR® 647® was added for an additional hour. The cells were washed, and propidium iodide (PI) was added to exclude dead cells. The fluorescent signal was measured using FACS and analyzed. Dead cells were removed based on the PI signal. The population was gated based on forward and side scatter (FSC and SSC) parameters, and doublets were removed. The Median Fluorescent Intensity (MFI) of the appropriate channel was calculated for the live single cells from each group. The MFI was plotted versus antibody concentration in Prism software (V6.01) and kinetic parameters were obtained using a curve fit dose response function with four parameters. […] The lower EC₅₀ values indicate increased binding affinity to cell surface hCTLA-4.
A general note: In flow cytometry, cells or beads pass a laser one at a time.

Assay [2] has as its target T1, human CTLA-4 expressed on cells. Description: flow cytometry, inhibition of CD86-mFC binding to HEK293-hCTLA-4 cells, reference tremelimumab. As to the method: (§1) As part of their activity, CTLA-4 therapeutic antibodies block the interaction between CTLA-4 and its ligands, leaving the ligands free for CD28 binding. […] First, HEK293-hCTLA-4 cells were incubated with the tested antibodies in a serial dilution for 30 minutes. […] The fluorescence was measured and analyzed. The experiment was performed in triplicate and is representative of three biological repeats.

For assay [3] the target is unchanged. Description: flow cytometry on transfected HEK293 cells. As to the method: (§2) HEK293 cells were transfected with expression vectors of the following immune-related proteins: hBTLA, hICOS, hCD28, hPDL1, hPD1, hPDL2, and hCTLA-4. Over-expression of the proteins was verified using commercial antibodies against each target. […] Antibody binding to cells was then detected using flow cytometry. Cells that were incubated only with the secondary antibody were used as a background control. […] Note that “+” indicates binding above the background level and “-” indicate no binding as compared to the background level.

Assay [4] has as its target T2, hPDL2 on HEK293 cells (human, UniProt Q9BQ51 20-273).
T2 construct: whole, on cells
T2 sequence (looked up): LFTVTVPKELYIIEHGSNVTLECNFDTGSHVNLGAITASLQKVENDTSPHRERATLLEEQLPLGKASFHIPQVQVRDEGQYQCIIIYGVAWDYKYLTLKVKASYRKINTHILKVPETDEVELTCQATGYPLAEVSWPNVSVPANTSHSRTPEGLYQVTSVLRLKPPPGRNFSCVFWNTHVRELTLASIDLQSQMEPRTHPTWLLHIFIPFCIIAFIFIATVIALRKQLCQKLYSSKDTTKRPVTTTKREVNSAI
Description: flow cytometry on transfected HEK293 cells. As to the method: as §2

Assay [5] concerns the target T3, hCD28 on HEK293 cells (human, UniProt P10747 19-220).
T3 construct: whole, on cells
Nature of the assay: flow cytometry on transfected HEK293 cells. As to the method: as §2

Assay [6] has as its target T4, hBTLA on HEK293 cells (human, UniProt Q7Z6A9 31-289).
T4 construct: whole, on cells
Nature of the assay: flow cytometry on transfected HEK293 cells. On the procedure:
as §2

The target of assay [7] is T5, hICOS on HEK293 cells (human, UniProt Q9Y6W8 21-199).
T5 construct: whole, on cells
T5 sequence (looked up): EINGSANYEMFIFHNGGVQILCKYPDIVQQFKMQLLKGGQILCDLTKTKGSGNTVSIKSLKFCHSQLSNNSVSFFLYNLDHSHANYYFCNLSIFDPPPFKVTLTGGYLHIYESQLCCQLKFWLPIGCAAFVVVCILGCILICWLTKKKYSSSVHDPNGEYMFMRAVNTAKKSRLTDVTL
Nature of the assay: flow cytometry on transfected HEK293 cells. As to the method: as §2

Assay [8] has as its target T6, hPDL1 on HEK293 cells (human, UniProt Q9NZQ7 19-290).
T6 construct: whole, on cells
Description: flow cytometry on transfected HEK293 cells. On the procedure:
as §2

Assay [9] concerns the target T7, hPD1 on HEK293 cells (human, UniProt Q15116 25-288).
T7 construct: whole, on cells
Nature of the assay: flow cytometry on transfected HEK293 cells. On the procedure:
as §2

The target of assay [10] is T8, Recombinant human CTLA-4-his (Sino Biologicals, 11159-H08H) (human, UniProt P16410 36-162).
T8 construct: Bought protein; also called dimer hCTLA-4; not shown: his tag
T8 sequence (P16410 36-162 limits assumed): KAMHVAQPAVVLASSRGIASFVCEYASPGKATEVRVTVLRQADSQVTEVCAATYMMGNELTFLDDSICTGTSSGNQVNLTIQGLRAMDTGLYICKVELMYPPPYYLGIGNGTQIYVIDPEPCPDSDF
Nature of the assay: SPR (Biacore T100), reference ipilimumab. On the procedure:
Recombinant human CTLA-4-his (Sino Biologicals, 11159-H08H) was added in a serial 2-fold dilution, starting at a concentration of 500nM. […] The measurement was corrected using the baseline channel and the protein-antibody interaction was measured by the change in surface resonance and quantified with Biacore T100 control software (version 2.0.4).
(In general: In SPR one partner is held on a chip, and binding of the other changes the refractive index at the surface.)

The target of assay [11] is T9, Macaque (Macaca fascicularis) CTLA-4 on HEK293 cells (Macaca fascicularis, UniProt G7PL88 36-223).
T9 construct: whole, on cells; also called macaque CTLA-4
T9 sequence (G7PL88 entry or part of it): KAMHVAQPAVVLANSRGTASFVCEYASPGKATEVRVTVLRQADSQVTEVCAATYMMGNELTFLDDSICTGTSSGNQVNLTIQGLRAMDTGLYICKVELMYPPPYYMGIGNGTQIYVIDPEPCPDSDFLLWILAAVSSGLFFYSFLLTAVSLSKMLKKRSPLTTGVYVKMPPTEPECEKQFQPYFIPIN
Description: flow cytometry on HEK293 cells transiently expressing macaque CTLA-4. On the procedure: (§3) Macaque (Macaca fascicularis), pig (Sus scrofa) and mouse (Mus musculus) CTLA-4 proteins were transiently expressed on the surface of HEK293 cells. […] Binding was measured using FACS and analyzed.

For assay [12], the target named is T10, Pig (Sus scrofa) CTLA-4 on HEK293 cells (Sus scrofa, UniProt Q9MYX7 36-223).
T10 construct: whole, on cells; also called pig CTLA-4
T10 sequence (Q9MYX7 36-223): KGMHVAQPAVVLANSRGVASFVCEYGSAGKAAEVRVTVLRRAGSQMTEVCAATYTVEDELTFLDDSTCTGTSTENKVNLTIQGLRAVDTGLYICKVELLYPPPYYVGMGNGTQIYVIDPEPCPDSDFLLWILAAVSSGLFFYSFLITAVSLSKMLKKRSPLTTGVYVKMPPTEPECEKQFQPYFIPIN
Description: flow cytometry on HEK293 cells transiently expressing pig CTLA-4, reference ipilimumab. On the procedure: as §3

Assay [13] addresses T11, Mouse (Mus musculus) CTLA-4 on HEK293 cells (Mus musculus, UniProt P09793 36-223).
T11 construct: whole, on cells; also called mouse CTLA-4
Description: flow cytometry on HEK293 cells transiently expressing mouse CTLA-4, reference tremelimumab. As to the method:
as §3

The target of assay [14] is T1, human CTLA-4 expressed on cells. Description: flow cytometry, inhibition of CD86-mFC binding to HEK293-hCTLA-4 cells. As to the method:
as §1

T1 sequence (P16410 36-223): as the sequence (G7PL88 entry or part of it) above, with N14S, T18I, M106L counted along it
T6 sequence (Q9NZQ7 19-290): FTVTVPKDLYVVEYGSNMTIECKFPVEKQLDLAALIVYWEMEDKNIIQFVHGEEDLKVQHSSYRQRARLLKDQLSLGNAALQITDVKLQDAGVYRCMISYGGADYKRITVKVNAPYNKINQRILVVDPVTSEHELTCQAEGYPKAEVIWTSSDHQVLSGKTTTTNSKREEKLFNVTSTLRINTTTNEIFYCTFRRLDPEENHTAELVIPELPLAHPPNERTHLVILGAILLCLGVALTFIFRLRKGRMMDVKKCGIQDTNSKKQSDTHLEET
T7 sequence (Q15116 25-288): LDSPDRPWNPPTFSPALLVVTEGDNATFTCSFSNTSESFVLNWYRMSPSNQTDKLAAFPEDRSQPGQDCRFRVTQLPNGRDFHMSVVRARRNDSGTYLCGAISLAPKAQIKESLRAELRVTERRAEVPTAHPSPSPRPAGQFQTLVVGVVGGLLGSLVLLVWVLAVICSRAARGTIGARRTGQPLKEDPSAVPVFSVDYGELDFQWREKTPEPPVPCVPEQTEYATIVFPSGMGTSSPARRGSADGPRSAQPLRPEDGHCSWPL

B1: Ab55h (antibody, V domains shown)
VH: QVQLQESGPGLVKPSETLSLTCAVSGYSISGDYYWGWIRQPPGKGLEWIGSIYHSGYTYYNPSLKSRVTISVDTSKNQFSLKLSSVTAADTAVYYCARDSGWYVIAFDYWGQGTLVTVSS
VL: EIVMTQSPATLSVSPGERATLSCRASQSVSSNLAWYQEKPGQAPRLLIYGASTRATGIPARFSGSGSGTEFTLTISSLQSEDFAVYYCQQYNNWPPLTFGGGTKVEIK
notes: Human form, compared with an hIgG1 isotype control
Usually EC50 stands for the concentration that produces a half-maximal response. A higher EC50 goes with lower potency in that assay. For orientation: IC50 means the midpoint of a concentration-inhibition curve. On to B1, for which the half-maximal effective concentration (EC50) in assay [1] is 0.17 nM; in assay [11] it was 0.3 nM. Also, in assay [2], the “Ratio Tremelimumab:Ab55h of IC50” value is 2.8 fold. Moreover, the MFI in assay [3] was 3290 MFI; in [4], 70 MFI; in [5] it was 66 MFI; in assay [6] it was 68 MFI; in assay [7], 67 MFI; in [8] it was 69 MFI. For the same molecule, in assay [9], the MFI turned out to be 72 MFI. The binding result in assay [4], in assay [5], in assay [6], in assay [7], in assay [8] and in assay [9] was “no binding” each time. Also, the “Ratio Ipilimumab:Ab55h of Kd” value in [10] came out at 8.1 fold. Besides, the “Ratio Ipilimumab:Ab55h of Koff” value in assay [10] turned out to be 1.3 fold. Further, the “Ratio Ipilimumab:Ab55h of Kon” value in assay [10] amounted to 0.16 fold. The “Ratio Ipilimumab:Ab55h of EC50” value in assay [12] is 5590 fold. Further, the “Ratio Tremelimumab:Ab55h of EC50” value in assay [13] is 3 fold. For the same molecule, the IC50 in assay [14] was found to be 1.5 nM.

For the origin of these results see patent US20210355220A1 (TIKCRO TECHNOLOGIES, published 2021).
